Reference: the RNAGym collection of RNA variant scans (doi:10.7554/elife.90254)

B1: LINE1-mini (parent)
chain: GGCAGAGCUCAACACAGCGUGGCAAAGUGGCUGUGGCUAGACUGCC

Variants of: B1
Assay: self-cleavage, relative activity (ratio to wild type); higher = more cleavage; in vitro, sequencing; the parent is a self-cleaving ribozyme

Variant | self-cleavage
GGCAGAGCACAACACAGCGUGGCAAAGUGGCUGUGGCUAGUCUGCC | 0.28
GGCAGAGCACAACACAGCGUGGCAAAGUGGCUGUGGCUAGACGGCC | 0.28
GGCAGAGCACAACACAGCGUGGCAAAGUGGCUGUGGCUAGACCGCC | 0.14
GGCAGAGCACAACACAGCGUGGCAAAGUGGCUGUGGCUAGACAGCC | 0.2
GGCAGAGCACAACACAGCGUGACAAAGUGGCUGUGGCUAGACUGCC | 0.14
GGCAGAGCACAACACAGCGUGUCAAAGUGGCUGUGGCUAGACUGCC | 0.11
GGCAGAGCACAACACAGCGUGCCAAAGUGGCUGUGGCUAGACUGCC | 0.09
GGCAGAGCACAACACAGCGUGGCAAAGUGGCUGUUGCUAGACUGCC | 0.09
GGCAGAGCACAACACAGCGUGGCAAAGUGGCUGUCGCUAGACUGCC | 0.08
GGCAGAGCACAACACAGCGUGGCAAAGUGGCUGUAGCUAGACUGCC | 0.15
GGCAGAGCACAACACAGCGUGGCAAAGUGGCUGUGGAUAGACUGCC | 0.21
GGCAGAGCACAACACAGCGUGGCAAAGUGGCUGUGGGUAGACUGCC | 0.11
GGCAGAGCACAACACAGCGUGGCAAAGUGGCUGUGGUUAGACUGCC | 0.12
GGCAGAGCACAACACAGCGUGGCAAAGUAGCUGUGGCUAGACUGCC | 0.2
GGCAGAGCACAACACAGCGUGGCAAAGUCGCUGUGGCUAGACUGCC | 0.05
GGCAGAGCACAACACAGCGUGGCAAAGUUGCUGUGGCUAGACUGCC | 0.15
GGCAGAGCACAACACAGCGUGGCAAAGUGGCUGUGGCUAGAUUGCC | 0.15
GGCAGAGCACAACACAGCGUGGCAAAGUGGCUGUGGCUAGAAUGCC | 0.06
GGCAGAGCACAACACAGCGUGGCAAAGUGGCUGUGGCUAGAGUGCC | 0.13

Variant | self-cleavage
GGCAGAGCAGAACACAGCGUGGCAAAGUGGCUGUGGCUAGACUGCC | 0.04
GGCAGAGCAUAACACAGCGUGGCAAAGUGGCUGUGGCUAGACUGCC | 0.08
GGCAGAGCAAAACACAGCGUGGCAAAGUGGCUGUGGCUAGACUGCC | 0.04
GGCAGAGCACAACACAGCGUGGCAAAGUGGCUGUGGCUAGACUUCC | 0.09
GGCAGAGCACAACACAGCGUGGCAAAGUGGCUGUGGCUAGACUCCC | 0.07
GGCAGAGCACAACACAGCGUGGCAAAGUGGCUGUGGCUAGACUACC | 0.31
GGCAGAGCACAACACAGCGUUGCAAAGUGGCUGUGGCUAGACUGCC | 0.15
GGCAGAGCACAACACAGCGUAGCAAAGUGGCUGUGGCUAGACUGCC | 0.3
GGCAGAGCACAACACAGCGUCGCAAAGUGGCUGUGGCUAGACUGCC | 0.06
GGCAGAGCACAAUACAGCGUGGCAAAGUGGCUGUGGCUAGACUGCC | 0.29
GGCAGAGCACAAGACAGCGUGGCAAAGUGGCUGUGGCUAGACUGCC | 0.23
GGCAGAGCACAAAACAGCGUGGCAAAGUGGCUGUGGCUAGACUGCC | 0.2
GGCAGAGCACAACACAGCGUGGCAAAGUGGAUGUGGCUAGACUGCC | 0.07
GGCAGAGCACAACACAGCGUGGCAAAGUGGGUGUGGCUAGACUGCC | 0.07
GGCAGAGCACAACACAGCGUGGCAAAGUGGUUGUGGCUAGACUGCC | 0.04
GGCAGAGCACAACACAGCGUGGCAAAGUGGCUGAGGCUAGACUGCC | 0.21
GGCAGAGCACAACACAGCGUGGCAAAGUGGCUGGGGCUAGACUGCC | 0.08
GGCAGAGCACAACACAGCGUGGCAAAGUGGCUGCGGCUAGACUGCC | 0.18
GGCAGAGCACAACACAGCGUGGCAAAGUGGCUGUGGCUAUACUGCC | 0.1

Variant | self-cleavage
GGCAGAGCACAACACAGCGUGGCAAAGUGGCUGUGGCUACACUGCC | 0.08
GGCAGAGCACAACACAGCGUGGCAAAGUGGCUGUGGCUAAACUGCC | 0.19
GGCAGAGCACAACUCAGCGUGGCAAAGUGGCUGUGGCUAGACUGCC | 0.11
GGCAGAGCACAACGCAGCGUGGCAAAGUGGCUGUGGCUAGACUGCC | 0.17
GGCAGAGCACAACCCAGCGUGGCAAAGUGGCUGUGGCUAGACUGCC | 0.04
GGCAGAGCCCAACACAGCGUGGCAAAGUGGCUGUGGCUAGACUGCC | 0.04
GGCAGAGCACAACACAGCGUGGCAAAGUGGCUGUGGCUAGACUGUC | 0.28
GGCAGAGCACAACACAGCGUGGCAAAGUGGCUGUGGCUAGACUGGC | 0.32
GGCAGAGCACAACACAGCGUGGCAAAGUGGCUGUGGCUAGACUGAC | 0.31
GGCAGAGCACAACACCGCGUGGCAAAGUGGCUGUGGCUAGACUGCC | 0.08
GGCAGAGCACAACACUGCGUGGCAAAGUGGCUGUGGCUAGACUGCC | 0.06
GGCAGAGCACAACACGGCGUGGCAAAGUGGCUGUGGCUAGACUGCC | 0.11
GGCAGAGCACAACACAGCGUGGCAAAGUGUCUGUGGCUAGACUGCC | 0.08
GGCAGAGCACAACACAGCGUGGCAAAGUGCCUGUGGCUAGACUGCC | 0.1
GGCAGAGCACAACACAGCGUGGCAAAGUGACUGUGGCUAGACUGCC | 0.18
GGCAGAGCACAACACAGCGGGGCAAAGUGGCUGUGGCUAGACUGCC | 0.16
GGCAGAGCACAACACAGCGCGGCAAAGUGGCUGUGGCUAGACUGCC | 0.12
GGCAGAGCACAACACAGCGAGGCAAAGUGGCUGUGGCUAGACUGCC | 0.16
